This is an account of results in patent US20250376533A1 (FUTUREGEN BIOPHARMACEUTICAL BEIJING, published 2025).

For assay [1], the target named is T1, human CD40 antigen (ACROBiosystems) (human, UniProt P25942 21-193).
T1 construct: Bought antigen coated on ELISA plates; construct not described
Put plainly: ELISA, coated antigen. The procedure: (§1) The binding ability of bispecific antibody to human PD-L1 and human CD40, as well as the species specificity, was detected using an enzyme-linked immunosorbent assay (ELISA). The specific method is as follows: human PD-L1, cynomolgus PD-L1, rat PD-L1, mouse PD-L1, human CD40, cynomolgus CD40, rat CD40, and mouse CD40 antigens (all purchased from ACROBiosystems) were coated with 1 μg/mL carbonate buffer (pH=9.6) in an ELISA plate at 100 μL per well, followed by incubation at 4° C. overnight. The wells were washed 5 times with PBST. 300 μL/well of PBST containing 1% BSA was added to block the wells, and the plate was incubated at room temperature for 1 hour. The wells were washed 5 times with PBST. […] The wells were washed 5 times with PBST. […] The wells were washed 5 times with PBST. Colorimetric substrate TMB was added at 100 μL per well and allowed to develop color at room temperature for 10 minutes, followed by the addition of 1 M sulfuric acid to terminate the reaction. The OD_{450 nm} was read on a microplate reader to analyze the results, and the EC₅₀ was calculated using a 4-parameter fit binding curve.
(§2) These bispecific antibodies are not able to bind to rat PD-L1 and CD40 or mouse PD-L1 and CD40.

Assay [2] has as its target T2, cynomolgus CD40 antigen (ACROBiosystems) (cynomolgus, UniProt G7PG38 21-193).
T2 construct: Bought antigen coated on ELISA plates; construct not described
The experiment in a line: ELISA, coated antigen. As to the method:
as §1, §2
On the technique in general: ELISA stands for enzyme-linked immunosorbent assay.

Assay [3] addresses T3, rat CD40 antigen (ACROBiosystems) (rat, UniProt A6JXD6 20-193).
T3 construct: Bought antigen coated on ELISA plates; construct not described
T3 sequence: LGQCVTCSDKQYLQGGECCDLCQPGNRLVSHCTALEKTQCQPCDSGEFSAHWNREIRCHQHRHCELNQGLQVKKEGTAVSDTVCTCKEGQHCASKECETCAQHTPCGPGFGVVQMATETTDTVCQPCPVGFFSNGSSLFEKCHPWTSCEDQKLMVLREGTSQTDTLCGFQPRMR
Put plainly: ELISA, coated antigen. The procedure: as §1, §2

Assay [4] has as its target T4, mouse CD40 antigen (ACROBiosystems) (mouse, UniProt P27512 24-193, limits assumed).
T4 construct: Bought antigen coated on ELISA plates; construct not described
The experiment in a line: ELISA, coated antigen. As to the method:
as §1, §2

The target of assay [5] is T5, human PD-L1 antigen (ACROBiosystems) (human, UniProt Q9NZQ7 19-238).
T5 construct: Bought antigen coated on ELISA plates
Put plainly: ELISA, coated antigen. The procedure: as §1, §2

Assay [6] deals with T6, cynomolgus PD-L1 antigen (ACROBiosystems) (cynomolgus, UniProt G7PSE7 19-238).
T6 construct: Bought antigen coated on ELISA plates; construct not described
Put plainly: ELISA, coated antigen. As to the method:
as §1, §2

In assay [7] the target is T7, rat PD-L1 antigen (ACROBiosystems) (rat, UniProt D4AE25 19-239).
T7 construct: Bought antigen coated on ELISA plates; construct not described
Put plainly: ELISA, coated antigen. As to the method: as §1, §2

The target of assay [8] is T8, mouse PD-L1 antigen (ACROBiosystems) (mouse, UniProt Q9EP73 19-239).
T8 construct: Bought antigen coated on ELISA plates; construct not described
Put plainly: ELISA, coated antigen. As to the method: as §1, §2

Assay [9] addresses T9, CD40 on HEK-Blue CD40L cells (InvivoGen) (UniProt P25942 21-277, limits assumed). Put plainly: cell-based or functional assay.
The target of assay [10] is T9, CD40 on HEK-Blue CD40L cells (InvivoGen). The experiment in a line: flow cytometry, competition with 10 nM Biotin-CD40L on HEK-Blue CD40L cells. The procedure:
The blocking effect of bispecific antibodies on CD40/CD40L binding was tested using HEK-Blue CD40L cells that highly express CD40. The specific method is as follows: HEK-Blue CD40L cells were collected and resuspended in pre-cooled PBS containing 2% FBS at a density of 1E7 cells/mL, and then added to a 96-well plate at 50 μL per well, i.e., 5E5 cells/well. Biotin-CD40L (FutureGen Biopharmaceutical) and serially diluted bispecific antibody were then added at 50 μL per well, with a final concentration of Biotin-CD40L of 10 nM, and the plate was incubated at 4° C. for 1 hour. The wells were washed twice with pre-cooled PBS. Streptavidin-PE (BioLegend, Cat. No. 405203) diluted in pre-cooled PBS containing 2% FBS was added, and the plate was incubated at 4° C. for 30 minutes. The wells were washed twice with pre-cooled PBS. The cells were then resuspended in pre-cooled PBS containing 2% FBS and assayed by flow cytometry.
A general note: Flow cytometry measures light scatter and fluorescence of single cells or particles in a stream.

Assay [11] deals with T1, human CD40 antigen (ACROBiosystems). Put plainly: bridging ELISA: coated human CD40, serially diluted bispecific antibody, detection with biotin-labeled human PD-L1 and streptavidin-HRP, OD450. The procedure:
Antigen human CD40 (purchased from ACROBiosystems) was coated with 1 μg/mL carbonate buffer (pH=9.6) in an ELISA plate at 100 μL per well, followed by incubation at 4° C. overnight. The wells were washed 5 times with PBST. 300 μL/well of PBST containing 1% BSA was added to block the wells, and the plate was incubated at room temperature for 1 hour. The wells were washed 5 times with PBST. […] The wells were washed 5 times with PBST. Biotin-labeled human PD-L1 (FutureGen Biopharmaceutical) diluted with PBST containing 1% BSA was added at 100 μL per well, and the plate was incubated at room temperature for 1 hour. The wells were washed 5 times with PBST. Streptavidin-HRP (BioLegend, Cat. No. 405210) diluted with PBST containing 1% BSA was added at 100 μL per well, and the plate was incubated at room temperature for 30 minutes. Colorimetric substrate TMB was added at 100 μL per well and allowed to develop color at room temperature for 10 minutes, followed by the addition of 1 M sulfuric acid to terminate the reaction. The OD_[…] was read on a microplate reader to analyze the results, and the EC₅₀ was calculated using a 4-parameter fit binding curve.

T1 sequence (P25942 21-193 limits assumed): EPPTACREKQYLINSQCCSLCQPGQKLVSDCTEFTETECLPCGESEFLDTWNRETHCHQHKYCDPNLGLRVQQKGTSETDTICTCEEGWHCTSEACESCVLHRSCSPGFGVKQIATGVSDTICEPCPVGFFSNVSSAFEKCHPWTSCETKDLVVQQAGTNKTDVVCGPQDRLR
T7 sequence (D4AE25 entry or part of it limits assumed): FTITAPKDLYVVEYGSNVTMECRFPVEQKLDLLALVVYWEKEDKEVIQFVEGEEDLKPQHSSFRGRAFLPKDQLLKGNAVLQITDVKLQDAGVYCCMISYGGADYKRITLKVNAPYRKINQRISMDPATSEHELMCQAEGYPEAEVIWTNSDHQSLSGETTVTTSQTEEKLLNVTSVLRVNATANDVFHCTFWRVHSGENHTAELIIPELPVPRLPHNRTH
T9 sequence (P25942 21-277 limits assumed): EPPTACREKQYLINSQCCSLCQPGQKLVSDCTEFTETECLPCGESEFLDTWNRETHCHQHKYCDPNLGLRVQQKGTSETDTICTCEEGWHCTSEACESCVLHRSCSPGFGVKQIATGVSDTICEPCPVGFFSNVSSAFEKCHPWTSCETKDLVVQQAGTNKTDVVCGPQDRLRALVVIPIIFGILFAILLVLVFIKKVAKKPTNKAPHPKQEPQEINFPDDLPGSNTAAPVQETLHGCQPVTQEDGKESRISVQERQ
T5 sequence (Q9NZQ7 19-238 limits assumed): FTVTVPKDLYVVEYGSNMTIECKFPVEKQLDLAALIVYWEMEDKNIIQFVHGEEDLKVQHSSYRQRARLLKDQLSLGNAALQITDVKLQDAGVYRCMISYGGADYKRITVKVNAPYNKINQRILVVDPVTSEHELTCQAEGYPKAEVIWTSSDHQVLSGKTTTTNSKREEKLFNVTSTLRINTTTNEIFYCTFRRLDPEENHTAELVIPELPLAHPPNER
T6 sequence (G7PSE7 entry or part of it): as the sequence (Q9NZQ7 19-238 limits assumed) above, with A33T, A34S, S62N, R68Q, Q82R, F173L, T185A, T192I, H215L counted along it
T4 sequence (P27512 24-193 limits assumed): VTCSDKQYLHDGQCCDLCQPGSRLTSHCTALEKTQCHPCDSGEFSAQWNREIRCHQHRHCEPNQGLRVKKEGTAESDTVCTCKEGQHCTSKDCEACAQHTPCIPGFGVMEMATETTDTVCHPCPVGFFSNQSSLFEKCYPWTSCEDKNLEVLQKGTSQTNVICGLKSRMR
T8 sequence (Q9EP73 19-239 limits assumed): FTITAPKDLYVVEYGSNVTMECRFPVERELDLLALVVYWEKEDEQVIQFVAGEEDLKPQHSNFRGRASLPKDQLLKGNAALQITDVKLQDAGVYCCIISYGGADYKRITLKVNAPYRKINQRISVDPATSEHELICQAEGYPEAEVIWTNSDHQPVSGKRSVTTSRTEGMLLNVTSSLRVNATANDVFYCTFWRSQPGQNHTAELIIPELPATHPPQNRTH

B1: anti-PD-L1/CD40 bispecific antibody 1653 (bispecific antibody, human IgG2, kappa)
light: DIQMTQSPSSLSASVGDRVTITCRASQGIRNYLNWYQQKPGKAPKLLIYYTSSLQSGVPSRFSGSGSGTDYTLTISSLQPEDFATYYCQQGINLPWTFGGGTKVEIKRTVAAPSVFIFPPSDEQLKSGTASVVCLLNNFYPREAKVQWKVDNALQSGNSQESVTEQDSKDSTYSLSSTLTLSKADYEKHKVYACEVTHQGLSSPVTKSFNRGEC
heavy: EVQLVESGGGLVQPGGSLRLSCAASGFTFSDYYMSWVRQAPGKGLEWVGFIRNKANAYTTEYAASVKGRFTISRDNSKSTLYLQMNSLRAEDTAVYYCARYGGLKKGWYFDLWGQGTLVTVSSASTKGPSVFPLAPCSRSTSESTAALGCLVKDYFPEPVTVSWNSGALTSGVHTFPAVLQSSGLYSLSSVVTVPSSNFGTQTYTCNVDHKPSNTKVDKTVERKCCVECPPCPAPPVAGPSVFLFPPKPKDTLMISRTPEVTCVVVDVSHEDPEVQFNWYVDGVEVHNAKTKPREEQFNSTFRVVSVLTVVHQDWLNGKEYKCKVSNKGLPAPIEKTISKTKGQPREPQVYTLPPSREEMTKNQVSLTCLVKGFYPSDIAVEWESNGQPENNYKTTPPMLDSDGSFFLYSKLTVDKSRWQQGNVFSCSVMHEALHNHYTQKSLSLSPGGGGGSGGGGSGGGGSGEVQLVESGGGLVQPGGSLRLSCAASGFTFDYYTQCWFRQAPGKEREWVSCISSSEGSTYYADSVKGRFTISRDNSKNTVYLQMNSLKTEDTAVYYCAARKGGPLTIENFFDYWGQGTQVTVSS
notes: First polypeptide chain = anti-CD40 light chain; second polypeptide chain = anti-CD40 heavy chain with the 1541 VHH joined to its C-terminus by a G4S linker
In the case of B1, the EC50 (usually the concentration at which the effect is half-maximal) turned out to be 0.02 nM in assay [1]; 0.018 nM in assay [2]; 0.039 nM in [5]; 0.021 nM in assay [6]; 0.039 nM in assay [11]. Besides, the binding result in [3], in assay [4], in assay [7] and in assay [8] was “no binding” in each case. In assay [9], the “CD40 agonistic activity (A)/(B) Ratio, EC50 without over with CHO/PD-L1” value came to 2.2. In addition, the “CD40 agonistic activity EC50 (nM) with CHO/PD-L1 (B), SEAP reporter” value in [9] was 0.018 nM. Also, the “CD40 agonistic activity EC50 (nM) without CHO/PD-L1 (A), SEAP reporter” value in assay [9] was determined as 0.039 nM. In assay [10], the half-inhibitory concentration (IC50) (in general, the point on the concentration scale where inhibition reaches its midpoint) was found to be 0.807 nM.

B2: anti-PD-L1/CD40 bispecific antibody 1605 (bispecific antibody, human IgG2, kappa)
light: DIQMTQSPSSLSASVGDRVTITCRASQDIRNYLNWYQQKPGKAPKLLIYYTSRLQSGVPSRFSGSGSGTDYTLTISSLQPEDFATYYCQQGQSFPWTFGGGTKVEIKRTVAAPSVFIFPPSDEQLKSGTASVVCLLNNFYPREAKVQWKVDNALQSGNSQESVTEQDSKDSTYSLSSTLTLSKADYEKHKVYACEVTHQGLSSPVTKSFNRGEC
heavy: EVQLVESGGGLVQPGGSLRLSCAASGFTFSNYYMSWVRQAPGKGLEWVAFIRNKANAYTTEYAASVKGRFTISRDNSKSTLYLQMNSLRAEDTAVYYCARYGGIRVGWYFDLWGQGTLVTVSSASTKGPSVFPLAPCSRSTSESTAALGCLVKDYFPEPVTVSWNSGALTSGVHTFPAVLQSSGLYSLSSVVTVPSSNFGTQTYTCNVDHKPSNTKVDKTVERKCCVECPPCPAPPVAGPSVFLFPPKPKDTLMISRTPEVTCVVVDVSHEDPEVQFNWYVDGVEVHNAKTKPREEQFNSTFRVVSVLTVVHQDWLNGKEYKCKVSNKGLPAPIEKTISKTKGQPREPQVYTLPPSREEMTKNQVSLTCLVKGFYPSDIAVEWESNGQPENNYKTTPPMLDSDGSFFLYSKLTVDKSRWQQGNVFSCSVMHEALHNHYTQKSLSLSPGGGGGSGGGGSGGGGSGEVQLVESGGGLVQPGGSLRLSCAASGFTFDYYTQCWFRQAPGKEREWVSCISSSEGSTYYADSVKGRFTISRDNSKNTVYLQMNSLKTEDTAVYYCAARKGGPLTIENFFDYWGQGTQVTVSS
notes: as for B1
Regarding B2, the EC50 in [1] stood at 0.024 nM; in assay [2], 0.02 nM; in [5], 0.05 nM; in assay [6], 0.025 nM; in [11], 0.038 nM. The binding result in assay [3], in [4], in assay [7] and in assay [8] was “no binding” throughout. Further, in assay [9], the “CD40 agonistic activity (A)/(B) Ratio, EC50 without over with CHO/PD-L1” value came to 3.2. The “CD40 agonistic activity EC50 (nM) with CHO/PD-L1 (B), SEAP reporter” value in assay [9] came to 0.024 nM. In addition, the “CD40 agonistic activity EC50 (nM) without CHO/PD-L1 (A), SEAP reporter” value in [9] turned out to be 0.075 nM. The IC50 in assay [10] stood at 1.09 nM.

B3: anti-PD-L1/CD40 bispecific antibody 1606 (bispecific antibody, human IgG2, kappa)
light: DIQMTQSPSSLSASVGDRVTITCRASQDIRNYLNWYQQKPGKAPKLLIYYTSRRDSGVPSRFSGSGSGTDYTLTISSLQPEDFATYFCQQGKTLPWTFGGGTKVEIKRTVAAPSVFIFPPSDEQLKSGTASVVCLLNNFYPREAKVQWKVDNALQSGNSQESVTEQDSKDSTYSLSSTLTLSKADYEKHKVYACEVTHQGLSSPVTKSFNRGEC
heavy: EVQLVESGGGLVQPGGSLRLSCAASGFTFSDYYMSWVRQAPGKGLEWVGFIRNKANGYTTEYAASVKGRFTISRDNSKNTLYLQMNSLRAEDTAVYYCARYGGLRQGWYFDVWGQGTLVTVSSASTKGPSVFPLAPCSRSTSESTAALGCLVKDYFPEPVTVSWNSGALTSGVHTFPAVLQSSGLYSLSSVVTVPSSNFGTQTYTCNVDHKPSNTKVDKTVERKCCVECPPCPAPPVAGPSVFLFPPKPKDTLMISRTPEVTCVVVDVSHEDPEVQFNWYVDGVEVHNAKTKPREEQFNSTFRVVSVLTVVHQDWLNGKEYKCKVSNKGLPAPIEKTISKTKGQPREPQVYTLPPSREEMTKNQVSLTCLVKGFYPSDIAVEWESNGQPENNYKTTPPMLDSDGSFFLYSKLTVDKSRWQQGNVFSCSVMHEALHNHYTQKSLSLSPGGGGGSGGGGSGGGGSGEVQLVESGGGLVQPGGSLRLSCAASGFTFDYYTQCWFRQAPGKEREWVSCISSSEGSTYYADSVKGRFTISRDNSKNTVYLQMNSLKTEDTAVYYCAARKGGPLTIENFFDYWGQGTQVTVSS
notes: as for B1
In the case of B3, the EC50 was found to be 0.024 nM in assay [1]; 0.02 nM in assay [2]; 0.039 nM in assay [5]; 0.022 nM in [6]; 0.04 nM in [11]. For the same molecule, the binding result in assay [3], in [4], in assay [7] and in assay [8] was “no binding” in each case. In addition, in [9], the “CD40 agonistic activity (A)/(B) Ratio, EC50 without over with CHO/PD-L1” value was 3.7. In assay [9], the “CD40 agonistic activity EC50 (nM) with CHO/PD-L1 (B), SEAP reporter” value worked out at 0.017 nM. Further, the “CD40 agonistic activity EC50 (nM) without CHO/PD-L1 (A), SEAP reporter” value in assay [9] was 0.061 nM. In addition, the IC50 in [10] was determined as 0.78 nM.
